B1: DLLBII129A03 (VHH, not shown: small tags and cut ends)
VHH: EVQLVESGGGLVQAGGSLRLSCAASGRTFSSYAMAWFRQAPGKEREYVAAIRWSGGTAYYADSVQGRFTISRDNAKNTVYLQMNSLRPEDTAVYYCANRAPDTRLRPYLYDYWGQGTQVTVSS
B2: DLLBII130F06 (VHH, not shown: small tags and cut ends)
VHH: B1 VHH with F37Y, R87K, R106A, L109E
B3: DLLBII129H07 (VHH, not shown: small tags and cut ends)
VHH: B1 VHH with F37Y, R87K, R106E, L109E
B4: DLLBII130B03 (VHH, not shown: small tags and cut ends)
VHH: B1 VHH with F37Y, R87K, R106A
B5: DLLBII133A05 (VHH)
VHH: EVQLVESGGGLVQPGGSLRLSCAASGFTFGSYDMSWVRRSPGKGPEWVSAINSGGGSTFYTDYVKGRFTISRDNAKNTLYLQMNSLKPEDTAVYYCAADRYIWARQGEYWGAYQYDYWGQGTQVTVSS
B6: VEGFBII111D05 (VHH)
VHH: EVQLVESGGGLVQTGGSLRLSCEASGRTFSSYSMGWFRQAPGKEREFVVAISKGGYKYDSVSLEGRFTISRDNAKNTVYLQINSLRPEDTAVYYCASSRAYGSSRLRLADTYEYWGQGTLVTVSS
B7: VEGFBII114D03 (VHH)
VHH: B6 VHH with G16D, E23A, A24V, P41Q, R71K
B8: VEGFBII113A08 (VHH)
VHH: B6 VHH with A24V, R71K
B9: VEGFBII114D02 (VHH)
VHH: B6 VHH with A24V
B10: VEGFBII114C09 (VHH)
VHH: B6 VHH with T14P, G16D, A24V, R71K
B11: VEGFBII113E03 (VHH)
VHH: B6 VHH with G16D, A24V, P41Q, R71K, I82M
B12: VEGFBII112D11 (VHH)
VHH: B6 VHH with T14P
B13: VEGFBII118E10 (VHH)
VHH: B6 VHH with G16D, A24V, P41Q, S60A, R71K, R86K, L120Q
B14: VEGFBII111G06 (VHH)
VHH: B6 VHH with T14P, E23A, I82M
B15: DLLBII104C04 (VHH)
VHH: EVQLVESGGGLVQAGGSLRLSCAAAGSTFSSYVMGWYRQAPGKQRELVAHISTRGITYYADSVKGRFTISRDNAKNTMYLQMNSLKPEDTAVYYCNTRRNFLSNYWGQGTQVTVSS
B16: DLLBII58A11 (VHH)
VHH: EVQLVESGGGLVQAGGSLRLSCTTSERTVSRYSMGWFRQAPGKEREAVATISWSGDSTYYADSVKGRFTISRDNTKNTLYLQIDSLKPEDTAVYYCVAKPNLKYGSYWPPRGYDYWGQGTQVTVSS
B17: DLLBII83G01 (VHH)
VHH: EVQLVESGGGLVQAGGSLRLSCAASGRTFSNYIMGWFRQAPGKEREFVAGISRYADYTGYADSVKGRFTISRDNVKNTVYLRMNSLKPDDTAVYYCAANEGYCSGYGCYEDSGQYDYWGQGTQVTVSS
B18: DLLBII95F02 (VHH)
VHH: EVQLVESGGGSVQAGGSLRLSCAASGRTFSSYAMGWFRQAPGKEREFVAAINWSGGYTYYADSVRGRFTISRDNAKNTVYLQMNSLKPEDTAVYYCAAPAPGSSGYEYDYWGQGTQVTVSS
B19: DLLBII80E08 (VHH)
VHH: EVQLVESGGGLVQAGGSLTLSCAASGGTFTTYAMGWFRQAPGKEREFVAAVSRFGVSWDYADSVKGRFTISRDNTANTLKLRMNSLKADDTAVYYCAAGGRSFLPFVPAYWGQGTQVTVSS

Here are results for 19 molecules from US20140120095A1 (Boehringer Ingelheim, published 2014).

Where a chain is given by its changes, count along the chain named.

In the first assay the target is T1, recombinant mouse DLL4 (C-terminally His-tagged extracellular domain, R&D Systems) (mouse, UniProt Q9JI71 27-532).
T1 construct: extracellular domain; also called rmDLL4; mDLL4
T1 sequence (Q9JI71 27-532): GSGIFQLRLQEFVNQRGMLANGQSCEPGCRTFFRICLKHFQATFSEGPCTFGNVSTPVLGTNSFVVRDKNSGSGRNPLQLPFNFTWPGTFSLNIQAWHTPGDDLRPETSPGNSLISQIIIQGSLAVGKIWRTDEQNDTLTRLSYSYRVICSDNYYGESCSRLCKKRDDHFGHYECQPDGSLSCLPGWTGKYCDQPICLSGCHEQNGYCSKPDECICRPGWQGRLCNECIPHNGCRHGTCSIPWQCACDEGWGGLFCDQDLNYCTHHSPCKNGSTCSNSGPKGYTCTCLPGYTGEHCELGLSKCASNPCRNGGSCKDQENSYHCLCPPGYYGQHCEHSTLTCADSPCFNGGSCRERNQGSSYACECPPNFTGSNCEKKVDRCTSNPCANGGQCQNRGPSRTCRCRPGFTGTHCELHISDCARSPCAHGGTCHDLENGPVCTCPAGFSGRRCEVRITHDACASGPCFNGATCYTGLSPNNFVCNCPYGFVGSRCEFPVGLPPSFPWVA
Briefly: ProteOn off-rate screen, periplasmic extract, coated mouse DLL4. The protocol:
(§1) In a first cycle, amino acid substitutions are introduced randomly in both framework (FW) and complementary determining regions (CDR) using the error-prone PCR method. […] After a polish step, PCR products are inserted via unique restriction sites into a vector designed to facilitate phage display of the VHH library. Consecutive rounds of in-solution selections are performed using decreasing concentrations of biotinylated recombinant human DLL4 (biot-rhDLL4) and trypsin elutions. Affinity-driven selections in a third round using cold rhDLL4 (at least 100× excess over biot-rhDLL4) are also performed. No selections on murine DLL4 are included as (conservation of) cross-reactivity is assessed at the screening level. Individual mutants are produced as recombinant protein using an expression vector derived from pUC119, which contains the LacZ promoter, a resistance gene for ampicillin, a multiple cloning site and an ompA leader sequence (pAX50). E. coliTG1 cells are transformed with the expression vector library and plated on agar plates (LB+Amp+2% glucose). Single colonies are picked from the agar plates and grown in 1 mL 96-deep-well plates. VHH expression is induced by adding IPTG (1 mM). Periplasmic extracts (in a volume of ˜80 uL) are prepared according to standard methods and screened for binding to recombinant human and mouse DII4 in a ProteOn (BioRad, Hercules, Calif., USA) off-rate assay. In brief, a GLC ProteOn Sensor chip is coated with recombinant human DII4 on the “ligand channels” L2 and L4 (with L1/L3 as reference channel), while “ligand channels” […] is coated with mouse DII4. Periplasmic extract of affinity-matured clones is diluted 1/10 and injected across the “analyte channels” A1-A6. An average off-rate is calculated of the wild type clones present in the plate and served as a reference to calculate off-rate improvements.
In general, koff refers to the first-order rate constant of dissociation. Regarding B1, the “fold (off-rate vs DLLBII101G08)” value worked out at 18 fold and the off-rate (koff) is 0.00038 s⁻¹.
In the same order, the values of B2 are 19 fold and 0.00026 s⁻¹.
In the case of B3, the “fold (off-rate vs DLLBII101G08)” value worked out at 27 fold and the koff came to 0.00025 s⁻¹.
With B4, the “fold (off-rate vs DLLBII101G08)” value stood at 20 fold and the koff was found to be 0.00024 s⁻¹.

A further assay deals with T2, recombinant human DLL4 (C-terminally His-tagged extracellular domain, R&D Systems) (human, UniProt Q9NR61 25-522, biotinylated in the competition ELISA).
T2 construct: also called rhDLL4; hDLL4
Briefly: competition ELISA hDLL4/hNotch1-Fc; summary table.
Broadly, the IC50 is the concentration at which inhibition is half-maximal. Regarding B5, the IC50 turned out to be 2.1 nM.
On to B1, for which the IC50 was 1.8 nM.
As for B2, the IC50 was 1.3 nM.
The same measure, in the same setting: as for B3, the figure is 1 nM; as for B4, 1.5 nM.

The next assay concerns the target T2, recombinant human DLL4 (C-terminally …). Nature of the assay: SPR (Biacore), rhDLL4. The protocol: Kinetic analysis to determine the affinity of the DII4-VHH interaction is performed by Surface Plasmon Resonance (SPR) on a Biacore T100 instrument. […] Purified VHHs or Fab fragment are injected for 2 minutes at different concentrations (between 10 and 300 nM) and allowed to dissociate for 20 min at a flow rate of 45 μl/min. Between sample injections, the surfaces are regenerated with 10 mM glycine pH1.5 and 100 mM HCl. HBS-N (Hepes buffer pH7.4) is used as running buffer. If possible, data are evaluated by fitting a 1:1 interaction model (Langmuir binding) onto the binding curves. The affinity constant KD is calculated from resulting association and dissociation rate constants (kₐ) and […].
Background: Surface plasmon resonance follows binding to a sensor surface in real time, without labels.
A word on the Kd: it is the constant that tells how readily two partners part at equilibrium. One may read the kon as the rate constant with which the complex forms. B1: the Kd turned out to be 0.5 nM, the koff is 0.00012 s⁻¹ and the kon is 210000 M⁻¹ s⁻¹.
Take B2: the Kd amounted to 0.4 nM, the koff turned out to be 8e-05 s⁻¹ and the kon turned out to be 200000 M⁻¹ s⁻¹.
In the same order, the values of B3 are 0.5 nM, 7.3e-05 s⁻¹ and 160000 M⁻¹ s⁻¹.
In the same order, the values of B4 are 0.3 nM, 6.8e-05 s⁻¹ and 220000 M⁻¹ s⁻¹.

Another assay deals with T3, recombinant human VEGF165 (human, UniProt P15692-4 27-191, biotinylated in the competition assays).
T3 construct: Bought protein; also called hVEGF165; rhVEGF165
T3 sequence (P15692 other isoform, or with tags, fused parts or gaps): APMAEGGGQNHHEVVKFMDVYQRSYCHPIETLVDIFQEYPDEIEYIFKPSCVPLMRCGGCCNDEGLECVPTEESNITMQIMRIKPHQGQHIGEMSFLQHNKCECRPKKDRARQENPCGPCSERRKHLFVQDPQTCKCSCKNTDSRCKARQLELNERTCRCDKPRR
Briefly: AlphaScreen, hVEGF165/hVEGFR2-Fc competition. Details: % inhibition: concentration or dose not given beside the values. (In Alpha technology, singlet oxygen from a donor bead excites a nearby acceptor bead.)
For orientation: % inhibition means the drop in the measured response relative to a control, in per cent. For the molecule B6, the “% inhibition” value is 100% and the IC50 stood at 0.209 nM.
Regarding B7, the “% inhibition” value amounted to 100% and the IC50 was 0.227 nM.
Take B8: the “% inhibition” value was found to be 100% and the IC50 was 0.253 nM.
In the same order, the values of B9 are 100% and 0.199 nM.
For B10, the “% inhibition” value came to 100% and the IC50 came to 0.215 nM.
For the molecule B11, the “% inhibition” value came to 100% and the IC50 turned out to be 0.29 nM.
Consider B12, for which the “% inhibition” value worked out at 100% and the IC50 was 0.221 nM.
On to B13, for which the “% inhibition” value is 100% and the IC50 is 0.189 nM.
For B14 the same measures were 100% and 0.366 nM.

In another assay the target is T4, recombinant human DLL4 (human, UniProt Q9NR61 25-522).
T4 construct: also called rhDLL4; hDLL4
Nature of the assay: Biacore off-rate, periplasmic extract.
B15: the koff was determined as 0.001 s⁻¹.
Take B16: the koff is 0.0016 s⁻¹.
The same measure, in the same setting: the result for B17 reads 0.00041 s⁻¹.
Regarding B18, the koff came out at 0.00067 s⁻¹.

Another assay has as its target T2, recombinant human DLL4 (C-terminally …). Nature of the assay: ProteOn off-rate screen, periplasmic extract, coated human DLL4. The method, then: as §1
Regarding B1, the “fold (off-rate vs DLLBII101G08)” value turned out to be 19 fold and the off-rate (koff) came to 0.00012 s⁻¹.
B2: the “fold (off-rate vs DLLBII101G08)” value was determined as 27 fold and the koff amounted to 6.5e-05 s⁻¹.
For B3 the same measures were 30 fold and 7.4e-05 s⁻¹.
In the same order, the values of B4 are 27 fold and 6.7e-05 s⁻¹.

In another assay the target is T5, human DLL4 overexpressed on cells (human, UniProt Q9NR61 27-685).
T5 construct: full length human DLL4 on CHO or HEK293 cells; also called CHO-hDLL4; CHO-hDII4
Briefly: FMAT, labelled hNotch1-Fc on CHO-hDLL4, periplasmic extract. The source says:
(§2) All calculations are based on the FL1_total signal which comprises the average of the fluorescence per well times the number of counts per well.
B15: the “% inh” value amounted to 87%.
In the case of B16, the “% inh” value was 95%.
For B19, the “% inh” value is 71%.
Same read-out and setting: as for B17, the figure is 87%.
With B18, the “% inh” value came out at 81%.

The target in the next assay is T6, mouse DLL4 overexpressed on cells (mouse, UniProt Q9JI71 27-686).
T6 construct: whole, on cells; also called CHO-mDLL4; CHO-mDII4
T6 sequence (Q9JI71 27-686): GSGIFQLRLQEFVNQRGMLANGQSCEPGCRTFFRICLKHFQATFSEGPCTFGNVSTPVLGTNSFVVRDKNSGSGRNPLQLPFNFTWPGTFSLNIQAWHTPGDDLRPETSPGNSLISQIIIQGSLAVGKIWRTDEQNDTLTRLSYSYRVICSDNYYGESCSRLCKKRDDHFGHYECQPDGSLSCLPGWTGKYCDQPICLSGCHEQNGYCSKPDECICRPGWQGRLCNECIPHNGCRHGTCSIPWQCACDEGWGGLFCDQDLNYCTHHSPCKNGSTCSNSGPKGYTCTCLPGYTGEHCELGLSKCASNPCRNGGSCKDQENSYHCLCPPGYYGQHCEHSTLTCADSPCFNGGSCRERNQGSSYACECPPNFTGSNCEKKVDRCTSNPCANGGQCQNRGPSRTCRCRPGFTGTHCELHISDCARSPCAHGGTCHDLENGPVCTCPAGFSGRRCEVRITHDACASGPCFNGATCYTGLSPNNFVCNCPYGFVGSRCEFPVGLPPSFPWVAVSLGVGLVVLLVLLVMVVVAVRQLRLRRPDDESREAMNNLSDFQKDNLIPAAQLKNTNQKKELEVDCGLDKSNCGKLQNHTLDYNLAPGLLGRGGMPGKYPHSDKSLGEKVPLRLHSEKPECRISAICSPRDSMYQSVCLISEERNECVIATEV
Nature of the assay: FMAT, labelled hNotch1-Fc on CHO-mDLL4, periplasmic extract.
From the text: as §2
B15: the “% inh” value worked out at 83%.
Regarding B16, the “% inh” value turned out to be 73%.
Same read-out and setting: as for B19, the figure is 82%.
For B17, the “% inh” value was 93%.
Regarding B18, the “% inh” value was found to be 71%.

In a further assay the target is T2, recombinant human DLL4 (C-terminally …). Nature of the assay: SPR (Biacore); summary table.
On to B1, for which the Kd was 0.5 nM.
As to B2, the Kd amounted to 0.4 nM.
Still for that read-out and setting: as for B3, the figure is 0.5 nM.
Turning to B4, the Kd worked out at 0.3 nM.

A further assay shares this target. Briefly: competition ELISA, biotinylated hDLL4 to coated hNotch1-Fc.
In the case of B5, the 50% inhibitory concentration (IC50) worked out at 2.1 nM.
Same read-out and setting: the result for B1 reads 1.8 nM.
Same read-out and setting: as for B2, the figure is 1.3 nM; as for B3, 1 nM.
For the molecule B4, the IC50 was determined as 1.5 nM.
